A word on the EC50: it is the concentration giving half of the maximal effect. Lower therefore signals a more potent agent.

For assay [1], the target named is T1, Hu FcRn (BPS Bioscience) (human, UniProt P55899 24-297; P61769 21-119).
T1 construct: Bought recombinant protein coated on ELISA plates; also called human FcRn; human neonatal Fc receptor
In words: ELISA, huFcRn coated, purified Affimer fusion, pH 6. The method, then:
(§1) The binding of AFFIMER® to hu-FcRn was evaluated by enzyme linked immunosorbent assay (ELISA) in 384 well plate format. Hu FcRn (BPS Bioscience) was coated at 5 μg/ml on the plate in 40 mM MES, pH 6. Plates were washed 3 times with 100 ul of washing buffer (PBS, Tween 20 0.05%, pH 6) with a plate washer and saturated with Casein 5% (Sigma) in MES pH 6 for 60 minutes at room temperature (25±1° C.). Plates were washed as described previously. AFFIMER® and negative controls (mAb anti hFcRn (clone ADM31), negative controls) were then diluted in duplicate, and loaded on the plate for 90 minutes at room temperature (25±1° C.). Plates were washed 3 times as described previously. Biotinylated polyclonal antibody anti Cystatin (R&D Systems) was then diluted in dilution buffer (1% casein, 0.05% Tween 20, and 8 mM MES, pH 6) and incubated 60 minutes at room temperature (25±1° C.). Plates were washed 3 times as described previously and Streptavidin HRP (N200, Thermo-Fisher) was incubated for 30 minutes at room temperature (25±1° C.). Plates were washed and the substrate (TMB, Pierce Thermo-Scientific) was added in the plate for 8±1 minute. The reaction was stopped using an acidic solution and plates were read at 450-630 nm. The EC₅₀ was then calculated using the interpolated non-linear four-parameters standard curve (FIGS. 5A-5B and Table 5A).
A general note: ELISA stands for enzyme-linked immunosorbent assay.

The target of assay [2] is T1, Hu FcRn (BPS Bioscience). The assay can be described thus: ELISA, huFcRn coated, purified Affimer fusion, pH 7.4. The method, then: (§2) The binding of AFFIMER® to hu-FcRn was evaluated by enzyme linked immunosorbent assay (ELISA) in 384 well plate format. Hu FcRn (BPS Bioscience) was coated at 5 μg/ml on the plate in PBS, pH 7.4. Plates were washed 3 times with 100 ul of washing buffer (PBS, Tween 20 0.05%, pH 7.4) with a plate washer and saturated with Casein 5% (Sigma) in MES pH 7.4 for 60 minutes at room temperature (25±1° C.). Plates were washed as described previously. AFFIMER® and controls (mAb anti hFcRn (ADM31), blank) were then diluted in duplicate, and loaded on the plate for 90 minutes at room temperature (25±1° C.). Plates were washed 3 times as described previously. Biotinylated polyclonal antibody anti Cystatin (R&D Systems) was then diluted in dilution Buffer (1% casein, 0.01% Tween 20, and 8 mM MES. It is in pH7.4) and incubated 60 minutes at room temperature (25±1° C.). Plates were washed 3 times as described previously and Streptavidin HRP (N200, thermo-Fisher) was incubated for 30 minutes at room temperature (25±1° C.). Plates were washed and the substrate (TMB, Pierce Thermo-Scientific) was added in the plate for 8±1 minute. The reaction was stopped using an acidic solution and plates were read at 450-630 nm. The EC₅₀ was then calculated using the interpolated non-linear four-parameters standard curve (FIGS. 5A-5B, Table 5A).

Assay [3] concerns the target T1, Hu FcRn (BPS Bioscience). In words: ELISA, huFcRn coated; ratio of the EC50 at the two pH values. The method, then: as §1
The binding of AFFIMER® to hu-FcRn was evaluated by enzyme linked immunosorbent assay (ELISA) in 384 well plate format. Hu FcRn (BPS Bioscience) was coated at 5 μg/ml on the plate in PBS, pH 7.4. Plates were washed 3 times with 100 ul of washing buffer (PBS, Tween 20 0.05%, pH 7.4) with a plate washer and saturated with Casein 5% (Sigma) in MES pH 7.4 for 60 minutes at room temperature (25±1° C.). Plates were washed as described previously. AFFIMER® and controls (mAb anti hFcRn (ADM31), blank) were then diluted in duplicate, and loaded on the plate for 90 minutes at room temperature (25±1° C.). Plates were washed 3 times as described previously. […]

Assay [4] has as its target T1, Hu FcRn (BPS Bioscience). The assay can be described thus: ELISA, huFcRn coated, pH 6. How it is done: The binding of AFFIMER® to Hu-FcRn was evaluated by enzyme linked immunosorbent assay (ELISA) in 384 well plate format. Hu FcRn (BPS Bioscience) was coated at 5 μg/ml on the plate in 40 mM MES, pH 6. Plates were washed 3 times with 100 μl of washing buffer (PBS, Tween 20 0.05%, pH 6) with a plate washer and saturated with Casein 5% (Sigma) in MES pH6 for 60 minutes at room temperature (25±1° C.). Plates were washed as described previously. AFFIMER® and negative controls (mAb anti hFcRn (clone ADM31), negative controls) were then diluted in duplicate, and loaded on the plate for 90 minutes at room temperature (25±1° C.). Plates were washed 3 times as described previously. Biotinylated polyclonal antibody anti Cystatin (R&D Systems) was then diluted in dilution Buffer (1% casein, 0.05% Tween 20, and 8 mM MES. It is in pH6) and incubated 60 minutes at room temperature (25±1° C.). Plates were washed 3 times as described previously and Streptavidin HRP (N200, thermo-Fisher) was incubated for 30 minutes at room temperature (25±1° C.). Plates were washed and the substrate (TMB, Pierce Thermo-Scientific) was added in the plate for 8±1 minute. The reaction was stopped using an acidic solution and plates were read at 450-630 nm. The EC50 was then calculated using the interpolated non-linear four-parameters standard curve (Table 4).

In assay [5] the target is T1, Hu FcRn (BPS Bioscience). In words: ELISA, huFcRn coated, pH 7.4. How it is done: as §2, with “μl” for “ul”, “pH 7.4)” for “pH7.4)”, “nm.” for “nm. The EC₅₀ was then calculated using the interpolated non-linear four-parameters standard curve (FIGS. 5A-5B, Table 5A).”
The target in assay [6] is T1, Hu FcRn (BPS Bioscience). In words: ELISA, huFcRn coated, purified Affimer, pH 6. The method, then: as §1
Assay [7] concerns the target T1, Hu FcRn (BPS Bioscience). The assay can be described thus: ELISA, huFcRn coated, purified Affimer, pH 7.4. The method, then: as §2

T1 sequence (P55899 24-297 limits assumed, chain 1 of 2): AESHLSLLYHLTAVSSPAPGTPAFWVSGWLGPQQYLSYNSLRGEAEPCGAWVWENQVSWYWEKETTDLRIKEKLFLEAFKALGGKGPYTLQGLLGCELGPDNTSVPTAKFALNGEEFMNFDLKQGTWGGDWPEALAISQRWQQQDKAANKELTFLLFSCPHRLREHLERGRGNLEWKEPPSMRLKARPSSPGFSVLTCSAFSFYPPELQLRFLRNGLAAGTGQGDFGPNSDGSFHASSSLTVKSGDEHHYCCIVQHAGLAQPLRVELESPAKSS
T1 sequence (P61769 21-119 limits assumed, chain 2 of 2): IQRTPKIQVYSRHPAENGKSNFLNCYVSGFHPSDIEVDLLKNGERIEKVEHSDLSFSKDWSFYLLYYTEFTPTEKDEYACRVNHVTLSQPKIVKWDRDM

B1: AVA04-251 FX6 (designed binder)
chain: MIPRGLSEAKPATPEIQEIVDKVKPQLEEKTNETYGKLEAVQYKTQVLALSFNNYHWHSTNYYIKVRAGDNKYMHLKVFNGPKLRHDKLTHADRVLTGYQVDKNKDDELTGFAEAAAKEAAAKEAAAKEAAAKEAAAKEAAAKMIPRGLSEAKPATPEIQEIVDKVKPQLEEKTNETYGKLEAVQYKTQVLAREGRQDWVLSTNYYIKVRAGDNKYMHLKVFNGPWVPFPHQQLADRVLTGYQVDKNKDDELTGFAEAAAKEAAAKEAAAKEAAAKEAAAKEAAAKMIPRGLSEAKPATPEIQEIVDKVKPQLEEKTNETYGKLEAVQYKTQVLAREGRQDWVLSTNYYIKVRAGDNKYMHLKVFNGPWVPFPHQQLADRVLTGYQVDKNKDDELTGFHHHHHH
B1: the values for the EC50 in the assay with Hu FcRn (BPS Bioscience) [1] and with Hu FcRn (BPS Bioscience) [2] were 0.03 nM and 4.3 nM, respectively. Also, the “pH 6/pH 7.4 (EC50 ratio)” value in the assay with Hu FcRn (BPS Bioscience) [3] was 143.

B2: FcRn-38 (designed binder)
chain: MIPRGLSEAKPATPEIQEIVDKVKPQLEEKTNETYGKLEAVQYKTQVLALSFNNYHWHSTNYYIKVRAGDNKYMHLKVFNGPKLRHDKLTHADRVLTGYQVDKNKDDELTGFHHHHHH
notes: AFFIMER (stefin A variant); also called LGC01-38
With B2, the EC50 in the assay with Hu FcRn (BPS Bioscience) [4] was determined as 0.14 nM; with Hu FcRn (BPS Bioscience) [5] it was 0.895 nM; in the assay with Hu FcRn (BPS Bioscience) [6], 0.003 nM; with Hu FcRn (BPS Bioscience) [7], 0.5 nM. Besides, the “pH 6/pH 7.4 (EC50 ratio)” value with Hu FcRn (BPS Bioscience) [3] was 167.

B3: FcRn-120 (designed binder)
chain: MIPRGLSEAKPATPEIQEIVDKVKPQLEEKTNETYGKLEAVQYKTQVLAKHKYHHTGHSTNYYIKVRAGDNKYMHLKVFNGPGQIHKVRSTADRVLTGYQVDKNKDDELTGFHHHHHH
notes: AFFIMER (stefin A variant)
In the assay with Hu FcRn (BPS Bioscience) [6], B3 registered an EC50 of 50.5 nM.

B4: FcRn-35 (designed binder)
chain: MIPRGLSEAKPATPEIQEIVDKVKPQLEEKTNETYGKLEAVQYKTQVLAHRQYPPGPHSTNYYIKVRAGDNKYMHLKVFNGPYHFHHYYKHADRVLTGYQVDKNKDDELTGFHHHHHH
notes: AFFIMER (stefin A variant); also called LGC01-35
B4: the EC50 in the assay with Hu FcRn (BPS Bioscience) [4] is 47.9 nM; with Hu FcRn (BPS Bioscience) [5] it was 225 nM; with Hu FcRn (BPS Bioscience) [6] it was 0.673 nM; with Hu FcRn (BPS Bioscience) [7], 113 nM. For the same molecule, the “pH 6/pH 7.4 (EC50 ratio)” value in the assay with Hu FcRn (BPS Bioscience) [3] was 168.

B5: FcRn-125 (designed binder)
chain: MIPRGLSEAKPATPEIQEIVDKVKPQLEEKTNETYGKLEAVQYKTQVLADHRPRHPKHSTNYYIKVRAGDNKYMHLKVFNGPAHKHHLGFKADRVLTGYQVDKNKDDELTGFHHHHHH
notes: AFFIMER (stefin A variant)
As for B5, the EC50 with Hu FcRn (BPS Bioscience) [6] worked out at 187 nM.

B6: FcRn-15 (designed binder)
chain: MIPRGLSEAKPATPEIQEIVDKVKPQLEEKTNETYGKLEAVQYKTQVLAHNHRHYSKGSTNYYIKVRAGDNKYMHLKVFNGPAFNDGAVFIADRVLTGYQVDKNKDDELTGFHHHHHH
notes: also called LGC01-15
B6 registered an EC50 in the assay with Hu FcRn (BPS Bioscience) [4] of 74.1 nM.

(Values after US20230097573A1 (LG CHEM, published 2023).)
